Data reported in patent publication EP4669671A1 (dated 2025).

Columns and labels:
[1] = biological target: T1, human IL2RA expressed on CHO-S cells (CHO-S-hIL2RA cells) (human, UniProt P01589 22-272); assay: flow cytometry on CHO-S-hIL2RA cells
T1 sequence: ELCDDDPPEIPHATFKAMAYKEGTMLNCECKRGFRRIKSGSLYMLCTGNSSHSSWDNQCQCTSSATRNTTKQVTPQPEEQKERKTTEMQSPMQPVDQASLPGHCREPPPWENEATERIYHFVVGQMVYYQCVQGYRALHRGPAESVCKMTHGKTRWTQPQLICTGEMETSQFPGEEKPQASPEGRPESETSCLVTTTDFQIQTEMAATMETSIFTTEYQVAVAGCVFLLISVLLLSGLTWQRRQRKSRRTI

[2] = biological target: T2, His-tagged human IL2RA protein (ACROBiosystems Inc., Cat#: ILA-H52H9) (human, UniProt P01589 22-213, limits assumed); assay: SPR (Biacore 8K), antibody captured on Protein A chip, His-tagged IL2RA as analyte
T2 construct: Bought protein; also called hIL2RA-his; not shown: His tag
T2 sequence: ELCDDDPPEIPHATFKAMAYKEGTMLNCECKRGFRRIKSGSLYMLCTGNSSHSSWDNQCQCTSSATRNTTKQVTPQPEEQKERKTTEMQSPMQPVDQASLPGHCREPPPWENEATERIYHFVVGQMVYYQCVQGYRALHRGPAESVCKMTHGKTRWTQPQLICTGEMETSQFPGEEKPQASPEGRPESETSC

[3] = biological target: T3, monkey (Macaca fascicularis) IL2RA expressed on CHO-S cells (CHO-S-fasIL2RA cells) (monkey (Macaca fascicularis), UniProt Q5MNY4 22-272); assay: flow cytometry on CHO-S-fasIL2RA cells
T3 construct: also called monkey IL2RA
T3 chain: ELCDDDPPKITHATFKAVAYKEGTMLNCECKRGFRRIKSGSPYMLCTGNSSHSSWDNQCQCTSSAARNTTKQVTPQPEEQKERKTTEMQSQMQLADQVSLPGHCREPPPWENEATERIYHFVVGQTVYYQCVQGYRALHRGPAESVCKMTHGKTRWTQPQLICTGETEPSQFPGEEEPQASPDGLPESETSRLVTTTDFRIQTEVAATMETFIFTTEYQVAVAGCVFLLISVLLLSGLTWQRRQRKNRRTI

Measured: binding result

B1: anti-IL2RA antibody 5D9 (antibody, V domains shown)
VH: EVQLVESGGGLVQPGGSLRLSCAASGFTVSSNYMSWVRQTPGKGLELVSFIYSGGITSYADSVRGRFTISRDNSKNTLYLQMNSLRAEDTAVYYCARDDYSNYFDYWGQGTLVTVSS
VL: DIQMTQSPSSVSASVGDRVTITCRASQGISNWLAWYQQKPGKAPKLLIFAASSLQSGVPSRFSGSGSGTDFTLTISSLQPEDFATYYCQQAKSFPITFGQGTRLEIK
notes: Variable regions were cloned into a vector with the human IgG constant region; also called 5D9-IgG1
binds: all assays above

B2: anti-IL2RA antibody 13F9 (antibody, V domains shown)
VH: QVQLVQSGAEVKRPGASVKVSCKASGYTFTTYAIHWVRQAPGQRLEWMGWINADNGYTKYSQNFQGRVTITRDTSASTAYMDLSTLRSEDTALYYCARTPRYCTSTSCSTGYYYYGMDVWGQGTTVTVSS
VL: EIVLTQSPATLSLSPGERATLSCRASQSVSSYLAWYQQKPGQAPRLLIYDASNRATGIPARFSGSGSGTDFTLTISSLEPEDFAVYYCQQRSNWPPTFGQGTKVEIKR
binds: all assays above

B3: anti-IL2RA antibody 14C2 (antibody, V domains shown)
VH: QVQLVQSGGGVVQPGRSLRLSCAASGFTFSTYGMHWVRQAPGKGLEWVAVISYDGSDKIYADSVKGRFTISRDNSKNTLFLQMNSLRAEDTAVYYCATGPMENYYYYNMDVWGLGTTVTVSS
VL: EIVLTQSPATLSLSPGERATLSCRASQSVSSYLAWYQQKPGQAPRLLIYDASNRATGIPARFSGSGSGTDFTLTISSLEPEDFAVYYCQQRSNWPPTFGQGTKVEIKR
binds: all assays above

B4: anti-IL2RA antibody 7B5 (antibody, V domains shown)
VH: EVQLQQWGAGLLKPSETLSLTCAVYGGSFSGYYWNWIRQPPGKGLEWIGESDHSGSTHFNPSLKSRVTISLDTSKNQFSLKLNSVTAADTAVYFCARAPDYGDFDHWGQGILVTVSS
VL: DIQMTQSPDSLAVSLGERATINCRSSQSVLHSSTNKRYLAWYQQKPRQPPKLLIYWTSTRESGVPDRFSGSGSGTDFTLTISSLQAEDVAVYFCQQYYSTPYTFGQGTKLEIK
binds: all assays above

B5: anti-IL2RA antibody 11C3 (antibody, V domains shown)
VH: QVQLVQSGAEVKKPGASVKVSCKASGYTFNSYYIHWVRQAPGQGLEWLGIINPTGGRTIYAQKFQGRVTMTRDTSTTTVDMELSSLRSEDTAVYYCARVPGYCKDTSCQDFYYYYGMDVWGQGSTVTVSS
VL: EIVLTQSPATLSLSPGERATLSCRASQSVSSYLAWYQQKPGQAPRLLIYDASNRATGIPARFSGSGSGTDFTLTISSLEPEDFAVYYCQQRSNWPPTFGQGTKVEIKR
binds: all assays above

B6: anti-IL2RA antibody 11C12 (antibody, V domains shown)
VH: QVQLVQSGGGLVQPGGSLRLSCSASGLTFSSYGMHWVRQAPGKGLDYVSGITNNGGRTEYADSVKGRFTISRDNSKNTLYLQMSSLRTEDTAVYYCVKEDWNGQYYYYAMDVWGQGTTVTVSS
VL: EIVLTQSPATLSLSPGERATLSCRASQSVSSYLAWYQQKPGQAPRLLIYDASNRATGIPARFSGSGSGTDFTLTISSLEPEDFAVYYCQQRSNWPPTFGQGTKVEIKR
binds: all assays above

B7: anti-IL2RA antibody 11D2 (antibody, V domains shown)
VH: QVQLVQSGGGVVQPGRSLRLSCAASGFTFTNYAIHWVRQAPGKGLEWVAVIWSDGDNKYYADSVKGRFTISRDNSKNTLYLQMNSLRAEDTAVYYCARTPWYCTSTNCYTGYYYYGMDVWGQGTTVTVSS
VL: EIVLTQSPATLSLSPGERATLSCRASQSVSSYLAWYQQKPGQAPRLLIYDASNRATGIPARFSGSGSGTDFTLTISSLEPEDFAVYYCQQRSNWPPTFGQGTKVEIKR
binds: all assays above
